Source: the supplement of paper PMC10567573

B1: INTS3 (parent)
chain: EEITEESLEESVGKPLYLIFRNLC
B2: STK38L (parent)
chain: FCIDSENRIGNSGVEEIKGHPFFE

Variants of: B1
Assay: protein stability index of a GFP-peptide fusion (GPS, HEK-293T) (PSI 1-6); higher = more stable
Conditions: c terminus: a fixed tail appended
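Also: lentivirally expressed fusions sorted by FACS into six bins by GFP to DsRed ratio, PSI derived from sequencing read proportions per bin multiplied by bin number.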

Protein stability index, by site and new letter:
E5: D 2.72 | V 1.72 | I 1.56 | W 1.85 | C 2.14 | S 2.5 | K 2.31 | G 2.09 | H 2.62 | M 1.89 | L 2.1 | T 2.37 | F 1.61 | Y 2.03 | A 2.4 | R 1.96 | P 1.98 | N 2.64 | Q 2.37
E6: I 2.06 | A 2.01 | N 2.29 | K 1.8 | T 2.02 | M 2 | S 2.27 | G 2.38 | R 1.99 | D 2.7 | Q 2.56 | H 2.44 | Y 2.39 | W 1.96 | L 1.69 | F 2.23 | V 1.76 | C 1.83 | P 2.49
E9: H 2.35 | K 2.5 | T 2.54 | C 2.25 | I 2.14 | F 2.05 | P 2.18 | L 2.93 | Q 2.44 | D 2.77 | M 2.28 | N 2.3 | A 2.97 | G 2.72 | Y 1.96 | W 2.09 | S 2.3 | R 2.41 | V 2.14
E10: N 2.78 | I 1.77 | Q 2.67 | L 2.07 | F 1.92 | V 2.09 | M 2.24 | Y 2.23 | R 2.24 | S 2.79 | C 1.96 | W 2.21 | H 2.25 | T 2.55 | A 2.64 | D 3.09 | K 2.5 | P 2.36 | G 2.82
E1: A 3.14 | Q 3.06 | R 2.2 | G 2.69 | V 2.31 | W 2.52 | T 2.6 | C 2.29 | H 2.67 | D 2.68 | L 2.46 | P 2.27 | K 2.51 | M 2.45 | S 2.58 | Y 2.3 | I 2.22 | F 1.8 | N 2.88
S11: P 2.36 | M 2.8 | Q 3.33 | R 2.71 | A 2.57 | H 2.56 | K 2.61 | G 2.9 | L 2.51 | T 2.79 | E 2.55 | F 2.57 | C 2.34 | I 2.52 | V 2.32 | W 2.4 | N 2.96 | D 3.03
S7: F 2.33 | R 2.98 | H 3.13 | K 2.55 | I 2.47 | A 2.88 | V 3.02 | G 2.75 | C 2.56 | T 3.13 | Y 2.15 | M 2.47 | P 3.02 | N 2.98 | W 2.46 | Q 2.83 | E 2.77 | D 2.87 | L 2.33
E2: T 2.68 | S 2.58 | D 2.86 | H 2.32 | A 1.98 | I 1.91 | M 2.1 | V 2.35 | G 2.56 | Y 1.69 | F 2.38 | W 1.74 | N 2.9 | K 2.02 | C 2.48 | P 2.51 | L 2.11 | Q 2.52 | R 2.93
I3: R 2.94 | F 2.79 | N 3.25 | K 3.04 | W 2.18 | H 3.67 | Q 3.36 | P 3.2 | S 2.84 | D 3.3 | T 2.9 | G 3.13 | V 3.16 | M 3.29 | L 3 | Y 2.1 | E 3.82 | A 3.14 | C 2.65
T4: V 2.3 | H 2.99 | S 2.4 | D 3.38 | I 1.98 | N 2.83 | W 1.68 | L 2.28 | C 2.46 | K 2.46 | Y 2.29 | R 2.3 | F 2.01 | M 2.23 | P 2.77 | A 2.52 | Q 2.71 | E 2.41 | G 2.66
L8: R 3.09 | V 3.15 | K 3.42 | F 2.57 | P 3.11 | H 3.26 | Y 2.97 | A 3.46 | G 3.21 | D 3.35 | N 3.34 | E 3.2 | S 3.48 | C 3.3 | M 2.86 | W 1.95 | Q 3.32 | T 3.42 | I 2.47

Variants of: B2
Assay: as above
Conditions: c terminus: a fixed tail appended

Protein stability index of substitutions, site by site:
K18: I 2.31 | G 2.36 | N 2.8 | D 4.12 | L 2.89 | A 2.48 | T 2.6 | E 3.07 | Y 2.16 | H 2.34 | Q 2.2 | S 3 | W 2.47 | P 3.07 | F 2.12 | C 2.82 | M 1.65 | V 2.63
F22: R 4.21 | K 4.49 | V 4.11 | H 4.33 | E 4.79 | T 4.5 | L 3.74 | C 3.81 | Q 3.1 | I 3.65 | Y 2.42 | A 3.58 | D 5.23 | P 4.32 | G 4.37 | N 4.5
H20: G 3.09 | M 2.71 | I 2.95 | C 1.54 | P 3.45 | A 3.79 | V 3.19 | E 4.12 | D 2.53 | F 2.62 | R 2.35 | K 3.41 | N 2.67 | Y 2.47 | L 2.69 | Q 3.48 | T 3.83
E24: M 1.45 | S 2.15 | V 1.71 | Y 1.69 | H 1.54 | F 1.74 | G 1.59 | D 2.24 | T 1.21 | P 2.01 | W 1.61 | L 4 | K 1.72 | C 2.7 | Q 1.75 | N 2.19 | I 2.72 | A 1.92
I17: W 1.67 | T 3.17 | Y 2.18
P21: S 3.73 | V 2.28 | L 1.42 | K 2.84 | M 1.94 | E 3.52 | N 3.13 | T 2.91 | Q 2.99 | H 2.89 | Y 2.25 | D 4.22 | F 1.7 | G 2.54 | C 2.07 | W 1.9 | R 2.97 | I 2.46 | A 2.72
G19: C 1.68 | T 2.19 | V 2.09 | Y 1.99 | R 1.63 | I 1.54 | M 1.67 | S 2.43 | D 3.21 | F 1.8 | N 2.68 | H 2.13 | L 1.87 | E 3.45 | Q 2.37 | A 2.15 | P 1.99 | W 2.27 | K 2.16
F23: H 2.69 | D 4.86 | P 4.07 | L 2.52 | S 1.93 | K 2.19 | R 1.72 | Y 3.35 | I 2.47 | M 1.07 | C 1.8 | W 2.02 | A 1.78 | N 4.2 | V 1.85 | T 1.46
